The text below walks through data of US20180244802A1 (DEUTSCHES ZENTRUM FUR NEURODEGENERATIVE ERKRANKUNGEN E V …, published 2018).

First the molecules themselves.
B1: 007-169 (antibody, V domains shown)
VH: EVQLVQSGAEVKKPGESLKISCKGSGYSFTSYWIGWVRQMPGKGLEWMGIIYPGDSDTRYSPSFQGQVTISADKSISTAYLQWSSLKASDTAMYYCARDYGDYYFDYWGQGTLVTVSS
VL: QSALTQPRSVSGSPGQSVTISCTGTSSDVGGYNYVSWYQQHPGKAPKLMIYDVSKRPSGVPDRFSGSKSGNTASLTISGLQAEDEADYYCCSYAGSYTGVFGEGTKLTVL
notes: also called 007-169-HC; 007-169-LC
B2: 007-142 (antibody, V domains shown)
VH: EVQLVQSGAEVKKPGESLKISCKGSGYSFTSYWIGWVRQMPGKGLEWMGIIYPGDSDTRYSPSFQGQVTISADKSISTAYLQWSSLKASDTAMYYCARDYGDYYFDYWGQGTLVTVSS
VL: LTQPRSVSGSPGQSVTISCTGTSSDVGGYNYVSWYQQHPGKAPKLMIYDVSKRPSGVPDRFSGSKSGNTASLTISGLQAEDEADYYCCSYAGSYTGVFGGGTKLTVL
notes: also called 007-142-HC; 007-142-LC
B3: 008-218 (antibody, human IgG1, V domains shown)
VH: EVQLVESGGGLVQPGRSLRLSCAASGFTFDDYAMHWVRQVPGKGLEWVSGISWSSGSIGYADSVKGRFTISRDNAKNSLYLQMNSLRAEDTALYYCAKDRASSWYAYGMDVWGQGTLVTV
VL: NFMLTQPHSVSESPGKTVTISCTRSSGSIASNYVQWYQQRPGSSPTTVIYDDNQRPSGVPNRFSGSIDSSSNSASLIISGLKTEDEADYYCQSTRVFGGGTKLTVL
notes: also called 008-218-HC; 008-218-LC
B4: 007-124 (antibody, human IgG1, V domains shown)
VH: EVQLVESGGGVGRPGGSLRLSCAASGFTFDDYGMSWVRQVPGKGLEWVSGINWSGADTGYADSVKGRFTISRDNAKNSLYLQMNSLRVEDTALYHCAREVGIAVTGYWFDPWGQGTLVTV
VL: SYELTQPPSVSVAPGQTARISCGGNHSESVHWYQQKPGQAPVLVVYDDSDRPSGIPERFSGSKSGNTATLTISRVEGGDEAEYYCQVWDSSSDHPGVVFGGGTKLTVL
notes: also called 007-124-HC; 007-124-LC
B5: 003-109 (antibody, V domains shown)
VH: VQLVESGGGVVQPGRSLRLSCAASGFTFSSYGMHWVRQAPGKGLEWVAVIWYDGSNKYYADSVKGRFTISRDNSKNTLYLQMNSLRAEDTAVYYCARRHYDFDAFDIWGQGTMVTVSS
VL: QSALTQPASVSGSPGQSITISCTGTSSDVGGYNYVSWYQQHPGKAPKLMIYEVSNRPSGVSNRFSGSKSGNTASLTISGLQAEDEADYYCSSYTSSSTLYVFGTGTKVTVL
notes: also called 003-109-HC; 003-109-LC
B6: 007-168 (antibody, human IgG1, V domains shown)
VH: VQLVQSGAEAKKPGESLKISCKASGYSFTTFWIGWVRQMPGSGLEWIGIIYPGDSDTRYSPSFQGHVTISADRSTSTAYLQWSSLKASDTAMYYCARSAVFDYWGQGTLVTVSS
VL: EIVMTQSPATLSVSPGGRATLSCRASQSVSSNLAWYQQKPGQAPRLLIYGASTRATGIPVRFSGSGSGTEFTLTISSLQSEDFAVYYCQQYNNWPTSWTFGQGTKVEIK

The assay deals with T1, NR1 construct with mutation N368Q (human, UniProt Q05586 19-938).
T1 construct: whole, on cells; also called mutated NR1 construct; the mutant
The assay is described as follows: immunofluorescence staining of HEK293 cells transfected with NR1 N368Q. On the procedure: The cDNA of the human ionotropic glutamate N-methyl-D-aspartate 1 receptor (GRIN1) was kindly provided by Prof. Dr. Wanker (MDC, Berlin) and cloned into pBudCE4.1 (Life Technologies). NR1 DNA (1 μg) was mixed with 3 μg PEI and 100 μl 150 mM NaCl, vortexed and incubated for 10 min, and HEK293 cells were transiently transfected. Two days later, HEK293 cells on cover slips were fixed with methanol at −20° C. for 4 min. In addition, HEK293 cells transfected with a different NMDAR clone, leucine-rich glioma-inactivated 1 (LGI1), contactinassociated protein 2 (Caspr2), α-amino-3-hydroxy-5-methyl-4-isoxazolepropionic acid (AMPA) receptor, and gamma-aminobutyric acid b (GABAb) receptor were used (Autoimmune-Enzephalitis-Mosaik 1, Euroimmun, Lübeck, Germany). For staining with monoclonal antibodies and control antibodies, cells were washed in PBS, preincubated with 5% normal goat serum containing 2% bovine serum albumin and 0.1% Triton X-100, and incubated with antibodies starting at a 1:2 dilution of the cell culture supernatant overnight at 4° C. Secondary fluorescently labeled anti-human IgG antibodies were used for visualization. Sections were washed in PBS and coverslips mounted with Immu-Mount (ThermoScientific).
Point mutation N368Q was introduced into the NR1 construct using the Stratagene QuikChange Mutagenesis kit according to manufacturer's instructions and the mutant transiently transfected into HEK293 cells as described previously (Doss et al, 2014). Staining of HEK293 cells expressing natural and mutated NR1 construct was performed as described above.
On to B1, for which the binding result was “no binding”.
Regarding B2, the binding result is listed as “no binding”.
For B3, the binding result was “no binding”.
For B4 the value was “no binding”; for B5, “no binding”; for B6, “no binding”.
